According to article PMC10936776, “Structural and functional characterization of AfsR, an SARP family transcriptional activator of antibiotic biosynthesis in Streptomyces” (PLOS Biology, 2024):
Changes are numbered by the printed parent chain. Numbers in names are those of the source.

B1: AfsR (dephosphorylated AfsR) (Streptomyces coelicolor A3(2)) (protein)
chain: MDGGPRVPEQRRPGFPAEEEESGALRFGVLGPVRAWRDGETLATGSPQQRALLAALLLREGRTATAGELIDALWGEEPPSQALAAVRTYASRLRKVLDPGVLVSESGGYAVRGLAEGALDLARAQDLASAAEKARSAGDLCHARDLLRRALDLWDGEVLAGVPGPYAQTQRVRLGEWRLQLLETRLDMDLDQGCHAEAVSELTALTAAHPLRERLRELLMLALYRSGRQAEALAVYADTRRLLADELGVDPRPGLQELQQRILQADPALAELSAATAETATATLRPAQLPATVSDFTGRAAFVRELSDVLSAASGESASGRVMAVSALAGIGGVGKTTLAVHVAHRARAAFPDGQLYVDLQGAGARPAEPETVLGSFLRALGTADSAIPDSLEERAALYRSVLDGRRVLVLLDNARDAAQVRPLLPGTDGCAALVTARVRMVDLAGAHLVDLDVMAPEEALALFTKIVGEERVASERQAALDVVGACGFLPLAIRIAASRLAARRTWTVSVLAAKLADERRRLDELQAGDQAVEATFELGYGQLEPAQARAFRLLGLADGPDISLAAAAAVLDLPAQDTEDLLESLVDTSLLESAAPGRYRFHDLVRLYARACAERTERDGNAPSERGAALSRLLDFYLATAAGVYAIERPGDRLVDGLEPTEYPGLTFTEGSAALDWLYTEAAPLLACVRQSAGTARLRRAVDLLWAAKDLTESGANSHQYEATARAMCDATGSAADTRAEGRARTVLSDVLLVSGRIEHAEEEARLAMRLAGSAEDSAAVSWVANNRGLVCLHQRRYAEGKGLFHQAIAGFRATDNRAGEASALSNLSRAQLGMGNVAEAVDIARQGLAVYAELGRTMRLANGHFALGVALTRAGRHEEALGEFAEALDLFGDHRQRLWEGATNFRLAEVHLAAGRPSSAAQHAEQALALGCIGGDRMRGNVLALLGRALSALGQADRARACWREALSLYEQHDAQEVGEVRALLARSVAR
notes: full-length, 993 residues, pET28a (His-tagged), E. coli BL21(DE3), Ni-NTA and SEC; wild type treated with lambda phosphatase (E. coli protein carries pT337); mainly monomer
B2: phosphorylated AfsR (phos-AfsR) (Streptomyces coelicolor A3(2)) (protein)
chain: B1 chain
notes: full-length, 993 residues, pET28a (His-tagged), E. coli BL21(DE3); dephosphorylated, then phosphorylated in vitro by AfsKΔC (pS22, pT337, pS391, pT506, pS953 by MS), SEC
B3: AfsR 4E mutant (S391E/T337E/T506E/S953E) (natural protein, S. coelicolor, UniProt P25941 1-993, looked up)
chain: B1 chain with T337E, S391E, T506E, S953E
notes: AfsR, S. coelicolor, with glutamate substitutions at all 4 phosphorylation sites of NOD and TPR; Likely made like wild-type AfsR (pET28a, E. coli BL21(DE3))
B4: AfsR T337A mutant (natural protein, S. coelicolor, UniProt P25941 1-993, looked up)
chain: B1 chain with T337A
notes: AfsR, S. coelicolor, full-length protein with T337A; Preincubated with afsS promoter DNA and 1 mM ATPγS for AfsR-TIC; Vector and host of the mutant are surmised from the wild type
B5: Streptomyces coelicolor RNA polymerase sigma factor σ^HrdB (natural protein, S. coelicolor)
chain: MSASTSRTLPPEIAESVSVMALIERGKAEGQIAGDDVRRAFEADQIPATQWKNVLRSLNQILEEEGVTLMVSAAEPKRTRKSVAAKSPAKRTATKAVAAKPVTSRKATAPAAPAAPATEPAAVEEEAPAKKAAAKKTTAKKATAKKTTAKKAAAKKTTAKKEDGELLEDEATEEPKAATEEPEGTENAGFVLSDEDEDDAPAQQVAAAGATADPVKDYLKQIGKVPLLNAEQEVELAKRIEAGLFAEDKLANSDKLAPKLKRELEIIAEDGRRAKNHLLEANLRLVVSLAKRYTGRGMLFLDLIQEGNLGLIRAVEKFDYTKGYKFSTYATWWIRQAITRAMADQARTIRIPVHMVEVINKLARVQRQMLQDLGREPTPEELAKELDMTPEKVIEVQKYGREPISLHTPLGEDGDSEFGDLIEDSEAVVPADAVSFTLLQEQLHSVLDTLSEREAGVVSMRFGLTDGQPKTLDEIGKVYGVTRERIRQIESKTMSKLRHPSRSQVLRDYLD
notes: principal sigma factor HrdB, S. coelicolor; region 1.1 disordered in the map; Stood in the assay as part of the RNAP σ^HrdB-holoenzyme; also called σ subunit; σ R4 (region 4); source: purified as described previously [37]
B6: Streptomyces coelicolor RNA polymerase α subunit (natural protein, S. coelicolor)
chain: MLIAQRPSLTEEVVDEFRSRFVIEPLEPGFGYTLGNSLRRTLLSSIPGAAVTSIRIDGVLHEFTTVPGVKEDVTDLILNIKQLVVSSEHDEPVVMYLRKQGPGLVTAADIAPPAGVEVHNPDLVLATLNGKGKLEMELTVERGRGYVSAVQNKQVGQEIGRIPVDSIYSPVLKVTYKVEATRVEQRTDFDKLIVDVETKQAMRPRDAMASAGKTLVELFGLARELNIDAEGIDMGPSPTDAALAADLALPIEELELTVRSYNCLKREGIHSVGELVARSEADLLDIRNFGAKSIDEVKAKLAGMGLALKDSPPGFDPTAAADAFGADDDADAGFVETEQY
notes: RNA polymerase subunit alpha, S. coelicolor; Stood in the assay as a subunit of the RNAP core in the holoenzyme; density for one αCTD is seen; also called αCTD (C-terminal domain of the α subunit); source: S. coelicolor RNAP purified as described previously [37]

Tests used:
[1] = target: T1, AfsR (dephosphorylated AfsR) (Streptomyces coelicolor, UniProt P25941); assay: in vitro MangoIII transcription assay after preincubation; format: biochemical; conditions: 500 nM dephosphorylated AfsR, 1 mM GTP preincubation 10 min 30 °C, RNAP-σHrdB, RbpA, CarD; activator
T1 construct: full-length, 993 residues, pET28a (His-tagged), E. coli BL21(DE3), Ni-NTA and SEC; wild type treated with lambda phosphatase (E. coli protein carries pT337); mainly monomer

[2] = substrate: Nc1ncnc2c1ncn2[C@@H]1O[C@H](COP(=O)(O)OP(=O)(O)OP(=O)(O)O)[C@@H](O)[C@H]1O; assay: Malachite green phosphate ATPase assay; format: biochemical, Streptomyces coelicolor; conditions: 5 μM protein, 20 mM Tris-HCl pH 7.5, 150 mM NaCl, 5 mM MgCl2, 30 min
[3] = target: the molecule itself; assay: SEC; Superdex 200; 20 mM Tris pH 8.0, 150 mM NaCl, 5% glycerol; protein alone, without DNA
[4] = target: T2, Streptomyces coelicolor RNA polymerase β′ subunit (S. coelicolor, UniProt Q8CJT1 1-1299); assay: cryo-EM structure; AfsR_(T337A)-TIC: 32 uM AfsR_(T337A) preincubated with 5 uM afsS promoter DNA and 1 mM ATPγS, mixed with RNAP core, σ^HrdB, CarD, RbpA; assembling buffer; Superose 6; nominal resolution 3.63 Å, SARP region 5.10 Å; conditions: both partners purified
T2 construct: RNA polymerase subunit beta', S. coelicolor; Stood in the assay as a subunit of the RNAP core in the holoenzyme; also called RNAP β′; β′ ZBD; source: S. coelicolor RNAP purified as described previously [37]

[5] = target: T3, Streptomyces coelicolor RNA polymerase β subunit (S. coelicolor, UniProt Q9L0L0 1-1161); assay: as above; conditions: both partners purified
T3 construct: RNA polymerase subunit beta, S. coelicolor; Stood in the assay as a subunit of the RNAP core in the holoenzyme; also called RNAP β; β flap; source: S. coelicolor RNAP purified as described previously [37]

[6] = target: the molecule itself; assay: as above
AfsR T337A mutant = target: B4; assay: as above; conditions: both partners purified
[7] = phosphomimetic 4E mutant, phosphatase treatment not stated

For `Nc1nc2c(ncn2[C@@H]2O[C@H](COP(=O)(O)OP(=O)(O)OP(=O)(O)O)[C@@H](O)[C@H]2O)c(=O)[nH]1` [GTP], the transcription activation [1] was “preincubating dephosphorylated AfsR with ATP or GTP significantly enhances its transcription activation”.

Work on B1 yielded a Km ([2]; dephosphorylated) of 1160 ± 231 µM and a kcat ([2]; dephosphorylated) of 0.0453 ± 0.00356 s⁻¹.

Work on B2 yielded a Km ([2]; phosphorylated by AfsKΔC) of 767 ± 163 µM and a kcat ([2]; phosphorylated by AfsKΔC) of 0.070 ± 0.00515 s⁻¹.

With B3 the binding result [3] was “binds”, the Km [2, 7] was 995 ± 152 µM and the kcat [2, 7] was 0.147 ± 0.00841 s⁻¹.

B4: binds [4]; binds [5]; binds [6].

B5: binds (AfsR T337A mutant).

B6: binds (AfsR T337A mutant).
